Experimental data taken from patent publication US12648985B2, “Immunotherapeutic for prostate cancer treatment” (Hexamer Therapeutics, Inc., priority 2019, dated 2026).
“Also recorded” adds a separate entry of the source.

Experiments:
[1] = test system: GnRH; experiment: anti-GnRH IgG endpoint titers by ELISA in sera of immunized mice; assay type: in vivo; conditions: BALB/cJ mice
Description: B-cell function: Standard ELISA was used to measure therapeutic efficacy by GnRH-specific antibody titer in the collected mouse sera. ELISA plates were coated with GnRH-BSA conjugate and 8 sequential 10-fold dilutions (from 1:10^3 to 1:10^10) of sera in blocking buffer were made and added to the ELISA plate wells. An HRP-labeled anti-mouse secondary antibody was added and the plates developed with a colorimetric substrate and measured in an ELISA plate reader. Data were plotted, curve fitted, and statistically analyzed using Prism Graph Pad software for calculating mid- and end-point titers.
(§1) Constructs 1-7 (1 and 10 ug) were adjuvanted with a monophosphoryl lipid-A/squalene-based adjuvant and injected into BALB/cJ mice. Each construct is injected into 5 mice (n=5 per construct). After 14, 28, and 42 days, mouse sera were obtained to measure anti-GnRH IgG endpoint titers by ELISA using dilutions from […] (sequential 10-fold dilutions). […] Testosterone was extracted from the sera, derivatized, and separated and quantified by LC-MS/MS.
The solid line in the group of dots is the geometric mean and the error bars are the geometric standard deviation. Two doses were chosen for this study: 1 and 10 ug. IgG titers reached maximum levels 42 days following prime immunization.

[2] = test system: testosterone; experiment: serum testosterone by LC-MS/MS in immunized mice; assay type: in vivo; conditions: BALB/cJ mice
Description: as §1
A castrate T level is shown by the dotted line.

B1: construct 2: GnRH peptide immunogen (SEQ ID NO: 70) conjugated to the TCE3-Hex-TCE4 hexamer scaffold peptide (SEQ ID NO: 68) (conjugate)
chain 1: QHWSYGLRPGDGEGC
chain 2: GQEAFSHIRIPLPHDIRSIGKEIRSIGREIRSIGKEIRSIGREFQDAYNAAGGHNAVF
modifications: conjugated; GnRH; TCE3_Hex_TCE4
anti-GnRH IgG antibody titers, 1 ug versus 10 ug dose ([1]; 1 and 10 ug, monophosphoryl lipid-A/squalene-based adjuvant, FIG. 3): equal antibody titers at both 1 and 10 ug | anti-GnRH IgG antibody titers, rank among the constructs ([1]; FIG. 3, listed as TCE3-Hex-TCE4+GnRH): highest antibody titers; also recorded: highest titers or induced high titers sooner | inducing IgG titers compared with KLH+GnRH (positive control) ([1]; FIGS. 4-6): about the same as KLH+GnRH | anti-GnRH IgG titers, d28 versus d42 ([1]; days post-prime immunization, FIG. 3): almost equal levels between d28 and d42 | inducing castrate levels of T compared with KLH+GnRH (positive control) ([2]; FIGS. 4-6): about the same as KLH+GnRH | testosterone (T) levels induced ([2]; by d42, FIG. 6): castrate levels of T

B2: construct 5: scaffold peptide (SEQ ID NO: 67): GnRH peptide and TCE2 at N- and C-terminus of the monomeric peptide, self-assembled (peptide)
chain: GQHWSYGLRPGGDIRSIGKEIRSIGREIKSIGREIRSIGRGPGPFNNFTVSFWLRVPRVSASHLEQY
modifications: also: self-assembled
anti-GnRH IgG antibody titers, rank among the constructs ([1]; FIG. 3): highest titers or induced high titers sooner
